These are literature values, as cited in article PMC7468149.

In one series the target is VEGFR1 (Homo sapiens) (UniProt P17948). Put plainly: SPR. For orientation: Surface plasmon resonance follows binding to a sensor surface in real time, without labels.
The next series addresses VEGFR2 (Homo sapiens) (UniProt P35968). Put plainly: SPR.
Chain of UniProt P35968 (P35968 20-1356): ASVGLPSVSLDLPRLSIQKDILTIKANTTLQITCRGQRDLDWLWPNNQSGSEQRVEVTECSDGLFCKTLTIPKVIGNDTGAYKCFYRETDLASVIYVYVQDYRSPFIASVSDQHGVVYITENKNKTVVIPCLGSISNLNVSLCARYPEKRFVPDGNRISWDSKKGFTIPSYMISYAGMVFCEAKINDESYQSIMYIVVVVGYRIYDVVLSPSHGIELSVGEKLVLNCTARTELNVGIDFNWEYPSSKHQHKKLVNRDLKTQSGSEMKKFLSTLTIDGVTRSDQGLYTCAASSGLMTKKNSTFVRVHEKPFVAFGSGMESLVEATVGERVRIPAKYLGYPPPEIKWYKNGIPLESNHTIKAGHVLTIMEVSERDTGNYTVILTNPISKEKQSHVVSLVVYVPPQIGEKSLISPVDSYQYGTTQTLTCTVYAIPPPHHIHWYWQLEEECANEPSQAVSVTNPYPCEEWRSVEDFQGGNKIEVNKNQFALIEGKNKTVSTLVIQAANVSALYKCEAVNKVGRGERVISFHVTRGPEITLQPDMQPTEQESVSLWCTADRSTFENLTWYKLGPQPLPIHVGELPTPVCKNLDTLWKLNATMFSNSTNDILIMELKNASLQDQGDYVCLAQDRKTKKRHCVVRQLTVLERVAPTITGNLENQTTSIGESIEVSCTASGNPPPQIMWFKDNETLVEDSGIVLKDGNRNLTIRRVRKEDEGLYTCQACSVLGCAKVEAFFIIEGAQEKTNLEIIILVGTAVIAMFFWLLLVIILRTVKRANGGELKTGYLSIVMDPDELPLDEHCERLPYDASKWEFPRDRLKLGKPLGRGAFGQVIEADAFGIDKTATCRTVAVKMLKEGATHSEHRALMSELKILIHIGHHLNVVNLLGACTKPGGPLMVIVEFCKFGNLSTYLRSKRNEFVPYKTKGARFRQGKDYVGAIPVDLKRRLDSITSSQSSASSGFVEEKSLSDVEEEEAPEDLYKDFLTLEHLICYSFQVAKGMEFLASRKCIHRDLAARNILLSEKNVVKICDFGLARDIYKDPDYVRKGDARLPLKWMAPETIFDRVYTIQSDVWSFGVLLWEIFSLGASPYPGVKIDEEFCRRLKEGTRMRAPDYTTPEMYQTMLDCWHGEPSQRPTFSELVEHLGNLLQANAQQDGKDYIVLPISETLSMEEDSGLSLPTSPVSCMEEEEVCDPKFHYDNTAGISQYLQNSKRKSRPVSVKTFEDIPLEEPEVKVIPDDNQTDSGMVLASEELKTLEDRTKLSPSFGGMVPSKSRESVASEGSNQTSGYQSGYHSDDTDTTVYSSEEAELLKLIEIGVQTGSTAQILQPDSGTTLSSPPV

Chain of UniProt P17948 (P17948 27-1338): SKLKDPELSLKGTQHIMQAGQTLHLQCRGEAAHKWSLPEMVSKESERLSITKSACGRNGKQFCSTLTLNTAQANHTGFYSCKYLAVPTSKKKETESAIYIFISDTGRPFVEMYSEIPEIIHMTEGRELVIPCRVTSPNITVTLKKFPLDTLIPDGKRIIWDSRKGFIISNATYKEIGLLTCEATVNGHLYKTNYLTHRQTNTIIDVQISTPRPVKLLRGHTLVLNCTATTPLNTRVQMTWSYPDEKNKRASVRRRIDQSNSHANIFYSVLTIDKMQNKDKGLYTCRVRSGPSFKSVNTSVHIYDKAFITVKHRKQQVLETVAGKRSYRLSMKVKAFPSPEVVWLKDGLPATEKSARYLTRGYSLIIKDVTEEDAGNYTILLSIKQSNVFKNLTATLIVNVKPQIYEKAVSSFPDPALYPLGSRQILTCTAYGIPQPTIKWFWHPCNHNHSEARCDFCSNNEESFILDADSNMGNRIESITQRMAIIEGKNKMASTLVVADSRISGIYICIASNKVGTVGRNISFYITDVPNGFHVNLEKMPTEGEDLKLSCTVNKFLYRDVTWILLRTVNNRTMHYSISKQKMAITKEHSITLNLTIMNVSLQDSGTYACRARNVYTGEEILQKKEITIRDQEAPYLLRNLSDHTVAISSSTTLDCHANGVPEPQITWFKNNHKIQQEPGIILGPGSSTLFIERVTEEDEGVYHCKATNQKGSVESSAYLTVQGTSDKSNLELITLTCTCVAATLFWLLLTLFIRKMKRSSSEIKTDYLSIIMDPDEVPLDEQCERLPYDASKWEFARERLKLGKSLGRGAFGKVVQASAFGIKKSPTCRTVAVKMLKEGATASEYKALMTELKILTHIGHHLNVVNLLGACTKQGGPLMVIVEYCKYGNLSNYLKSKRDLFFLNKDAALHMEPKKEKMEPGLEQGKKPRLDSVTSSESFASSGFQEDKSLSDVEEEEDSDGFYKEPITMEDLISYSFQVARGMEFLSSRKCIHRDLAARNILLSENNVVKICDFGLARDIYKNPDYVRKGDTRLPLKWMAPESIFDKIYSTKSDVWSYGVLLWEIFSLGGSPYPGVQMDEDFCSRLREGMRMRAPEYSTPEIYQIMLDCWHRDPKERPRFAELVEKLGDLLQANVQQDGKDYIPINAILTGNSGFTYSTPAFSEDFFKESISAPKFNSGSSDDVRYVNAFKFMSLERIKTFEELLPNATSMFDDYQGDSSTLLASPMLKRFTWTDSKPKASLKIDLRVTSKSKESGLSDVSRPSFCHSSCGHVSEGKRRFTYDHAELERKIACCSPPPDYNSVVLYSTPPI

As usually defined, the Kd is the constant that tells how readily two partners part at equilibrium. Turning to VEGF-A165a (from UniProt P15692), the figures for the Kd in the series with VEGFR1 (Homo sapiens) and in the series with VEGFR2 (Homo sapiens) were 0.0075 nM and 0.052 nM, respectively.
